# Measurements from PMC11873932, “PSKH1 kinase activity is differentially modulated via allosteric binding of Ca^2+ sensor proteins” (Proceedings of the National Academy of Sciences of the …, 2025).
# T1: Protein Serine Kinase H1 (PSKH1), recombinant full-length, wild type (human, UniProt P11801 1-424)
# T1 sequence (looked up): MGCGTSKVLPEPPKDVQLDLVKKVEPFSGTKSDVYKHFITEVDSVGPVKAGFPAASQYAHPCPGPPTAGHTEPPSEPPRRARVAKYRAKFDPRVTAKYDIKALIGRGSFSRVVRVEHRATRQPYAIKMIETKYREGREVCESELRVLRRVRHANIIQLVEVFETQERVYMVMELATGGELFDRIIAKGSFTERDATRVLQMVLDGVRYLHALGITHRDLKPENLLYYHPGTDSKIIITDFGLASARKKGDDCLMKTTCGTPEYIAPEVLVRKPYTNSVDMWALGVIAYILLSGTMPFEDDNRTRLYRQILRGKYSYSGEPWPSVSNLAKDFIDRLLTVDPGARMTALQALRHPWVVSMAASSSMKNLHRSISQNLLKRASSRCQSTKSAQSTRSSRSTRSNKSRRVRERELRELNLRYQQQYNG
# Columns and labels:
# [1] = molecular target: T1, Protein Serine Kinase H1 (PSKH1), …; test: cell-based or functional assay
# [2] = molecular target: T1, Protein Serine Kinase H1 (PSKH1), …; test: cross-linking; SDA (NHS-Diazirine, 1 mg/mL) cross-linking mass spectrometry; recombinant full-length PSKH1 with Calmodulin, RCN3 or UNC119B at 1:2 molar ratio; 30 min in the dark at room temperature, UV 365 nm; bands cut from reducing SDS-PAGE, trypsin; settings: both partners purified
binder,measurement,setting,value
"Reticulocalbin-3 (RCN3), recombinant (His6-RCN3) (natural protein, human, UniProt Q96D15 21-328, looked up) KPSPDAGPHGQGRVHQAAPLSDAPHDDAHGNFQYDHEAFLGREVAKEFDQLTPEESQARLGRIVDRMDRAGDGDGWVSLAELRAWIAHTQQRHIRDSVSAAWDTYDTDRDGRVGWEELRNATYGHYAPGEEFHDVEDAETYKKMLARDERRFRVADQDGDSMATREELTAFLHPEEFPHMRDIVIAETLEDLDRNKDGYVQVEEYIADLYSAEPGEEEPAWVQTERQQFRDFRDLNKDGHLDGSEVGHWVLPPAQDQPLVEANHLLHESDTDKDGRLSKAEILGNWNMFVGSQATNYGEDLTRHHDEL",radiometric kinase assay (ADR1 peptide phosphorylation) of HA-tagged PSKH1 (10 ng) with Ca2+-RCN3 (1 uM),[1],~2 fold
"UNC119B, recombinant full-length (natural protein, UNC119B, human, full length) not shown",binding result,[2],binds
